Patent US20060193821, “Aptamers to the human IL-12 cytokine family and their use as autoimmune disease therapeutics” (published 2006)

B1: ARC1626 (mixed)
RNA: ACAGGCAAGUAAUUGGGGAGUGCGGGCGGGGUGU
modifications: ARC1544 sugars; PS at 17 linkages 5' of deoxy residues as printed in Table 29; 3'-idT [PS at 2-3, 3-4, 4-5, 6-7, 7-8, 8-9, 10-11, 11-12, 14-15, 17-18, 18-19, 19-20, 21-22, 25-26, 27-28, 28-29, 32-33; ARC1544 sugars (2'-deoxy/2'-OMe); 3'-inverted dT at 35]
B2: ARC1623 (mixed)
RNA: B1 RNA
modifications: dAmCdAdGdGmCdAdAdGmUdAdAmUmUdGmGmG-s-dG-s-dA-s-dGmU-s-dGmCmGmGdGmCdGdGmGmGmUdGmU-3T (d deoxy, m 2'-OMe, s PS, 3T idT) [PS at 17-18, 18-19, 19-20, 21-22; 2'-OMe at 2,6,10,13,14,16,17,21,23,24,25,27,30,31,32,34; 2'-deoxy at other nt 1-33; 3'-inverted dT at 35]
B3: ARC1624 (mixed)
RNA: B1 RNA
modifications: dAmCdAdGdGmCdAdAdGmUdAdAmUmUdGmGmGdGdAdGmUdGmCmGmG-s-dGmC-s-dG-s-dGmGmGmUdGmU-3T (d deoxy, m 2'-OMe, s PS, 3T idT) [PS at 25-26, 27-28, 28-29; 2'-OMe at 2,6,10,13,14,16,17,21,23,24,25,27,30,31,32,34; 2'-deoxy at other nt 1-33; 3'-inverted dT at 35]
B4: ARC1431 (mixed)
RNA: B1 RNA
modifications: dRmY; 2'-OMe A7; 3'-idT
B5: ARC1468 (mixed)
RNA: GGCAAGUAAUUGGGGAGUGCGGGCGGGG
modifications: dRmY; 3'-idT
B6: ARC1436 (mixed)
RNA: B1 RNA
modifications: dRmY; 2'-OMe G15; 3'-idT
B7: ARC1625 (mixed)
RNA: B1 RNA
modifications: dAmCdAdGdGmCdAdAdGmUdAdAmUmUdGmGmGdGdAdGmUdGmCmGmGdGmCdGdGmGmGmU-s-dGmU-3T (d deoxy, m 2'-OMe, s PS, 3T idT) [PS at 32-33; 2'-OMe at 2,6,10,13,14,16,17,21,23,24,25,27,30,31,32,34; 2'-deoxy at other nt 1-33; 3'-inverted dT at 35]
B8: ARC1756 (mixed)
RNA: B1 RNA
modifications: mAmC-s-dAdGdGmC-s-dAmAmGmUmA-s-dAmUmU-s-dGmGmG-s-dG-s-dA-s-dGmU-s-dGmCmGmGmGmCmGmGmGmGmUmGmU-3T (d deoxy, m 2'-OMe, s PS, 3T idT) [PS at 2-3, 6-7, 11-12, 14-15, 17-18, 18-19, 19-20, 21-22; 2'-deoxy at 3,4,5,7,12,15,18,19,20,22; 2'-OMe at other nt 1-34; 3'-inverted dT at 35]
B9: ARC1544 (mixed)
RNA: B1 RNA
modifications: dRmY with 2'-OMe at G16, G17, G23, G24, G29, G30; 3'-idT
B10: ARC1469 (mixed)
RNA: GGCAAGUAAUUGGGGAGUGCGGGCGGGG
modifications: dRmY; 2'-OMe at two As and one G as printed in Table 29; 3'-idT
B11: ARC1386 (mixed)
RNA: B1 RNA
modifications: dRmY; 3'-idT
B12: ARC797 (mixed)
RNA: GGUGGGGAGUGCGGGCGGGGGGUCGCC
modifications: deoxy A,G; 2'-OMe C,U
B13: ARC897 (mixed)
RNA: GAUGUUGGCAAGUAAUUGGGGAGUGCGGGCGGGGUUCAUC
modifications: deoxy A,G; 2'-OMe C,U; 3'-idT
B14: ARC796 (mixed)
RNA: UAAUUGGGGAGUGCGGGCGGGGGGUCGAUCG
modifications: deoxy A,G; 2'-OMe C,U
B15: AMX86-C5 (ssRNA)
RNA: GGGAAAAGCGAAUCAUACACAAGAGUUUUAUGUGGGUCCCGAUGAUUAACUUUAUUGGCGCAUUGCUCCGCCAGAGACCAACCGAGAA
modifications: 2'-F C,U
B16: AMX86-A7 (ssRNA)
RNA: GGGAAAAGCGAAUCAUACACAAGAUCUCUUUGGCCGACGCAACAAUGCUCUUUUCCGACCUUGCGCUCCGCCAGAGACCAACCGAGAA
modifications: 2'-F C,U
B17: AMX86-B7 (ssRNA)
RNA: GGGAAAAGCGAAUCAUACACAAGAAUGAAUUCCGUCCACGGGCGCCCGAUGAUGUCAGUUUUCGGCUCCGCCAGAGACCAACCGAGAA
modifications: 2'-F C,U
B18: AMX86-C9 (ssRNA)
RNA: GGGAAAAGCGAAUCAUACACAAGACUCAUGGAUAUGGCCUAGCAGCCGUGGAAGCGGUCAUUCUGCUCCGCCAGAGACCAACCGAGAA
modifications: 2'-F C,U
B19: AMX86-H9 (ssRNA)
RNA: GGGAAAAGCGAAUCAUACACAAGAUGGUUCCCACGUGAAAGUGGCUAGCGAGUACCCCACUUAUGCUCCGCCAGAGACCAACCAAGGG
modifications: 2'-F C,U
B20: AMX86-A10 (ssRNA)
RNA: GGGAAAAGCGAAUCAUACACAAGAGUAAUGUGGGUCCCGAUGAUUCGCUGUGCGGCGUUUGUAGCUCCGCCAGAGACCAACCGAGAA
modifications: 2'-F C,U
B21: AMX86-B10 (ssRNA)
RNA: GGGAAAAGCGAAUCAUACACAAGAGAACGAGUAUAUUUGCGCUGGCGGAGAAGUCUCUCGAAGGGAGCUCCGCCAGAGACCAACCGAGAA
modifications: 2'-F C,U
B22: AMX86-E10 (ssRNA)
RNA: GGGAAAAGCGAAUCAUACACAAGAUUGUCUCGGAUUGGUCACUCCCAUUUUUGUUCGCUUAACGGCUCCGCCAGAGACCAACCGAGAA
modifications: 2'-F C,U
B23: AMX86-A11 (ssRNA)
RNA: GGGAAAAGCGAAUCAUACACAAGAACGGCUAGGCAUCAAUGGCCAGCAAAAAUAGUCGUGUAAUGCUCCGCCAGAGACCAACCGAGAA
modifications: 2'-F C,U
B24: AMX86-B11 (ssRNA)
RNA: GGGAAAAGCGAAUCAUACACAAGAGUAUCAUUCGGCUGGUGGGAGAAAUCUCUGUAGAUAUAGAGCUCCGCCAGAGACCAACCGAGAA
modifications: 2'-F C,U
B25: AMX86-F11 (ssRNA)
RNA: GGGAAAAGCGAAUCAUACACAAGACCAUCGGACGAGGCGGGUCACCUUUUACGCUUUCGAGCUGGCUCCGCCAGAGACCAACCGAGAA
modifications: 2'-F C,U
B26: AMX86-F12 (ssRNA)
RNA: GGGAAAAGCGAAUCAUACACAAGAGUGUUGAAUGAGCGCUGGUGGACAGAUCUUUGGUUACAGAGCUCCGCCAGAGACCAACCGAGAA
modifications: 2'-F C,U
B27: AMX91-H8 (ssRNA)
RNA: GGGAAAAGCGAAUCAUACACAAGAACGCAUAGUCGGAUUUACCGAUCAUUCUGUGCCUUCGUGACGCUCCGCCAGAGACCAACCGAGAA
modifications: 2'-F C,U

These binders were tested against T1, IL-23 (human, p19/p40 heterodimer) (Homo sapiens, UniProt Q9NPF7;P29460 SEQ:20-189,SEQ:23-328) (assay: filter; dot blot; DPBS with Ca and Mg, 0.1 mg/mL BSA, 30 min RT). Conditions: tags: R&D Systems, carrier free; label: 5'-32P.
T1 sequence (Q9NPF7 20-189, chain 1 of 2): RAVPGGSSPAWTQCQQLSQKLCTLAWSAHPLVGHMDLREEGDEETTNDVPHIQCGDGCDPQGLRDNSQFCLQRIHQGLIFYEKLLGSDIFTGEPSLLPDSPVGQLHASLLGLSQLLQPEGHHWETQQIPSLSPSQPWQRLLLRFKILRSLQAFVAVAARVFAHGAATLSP
T1 sequence (P29460 23-328, chain 2 of 2): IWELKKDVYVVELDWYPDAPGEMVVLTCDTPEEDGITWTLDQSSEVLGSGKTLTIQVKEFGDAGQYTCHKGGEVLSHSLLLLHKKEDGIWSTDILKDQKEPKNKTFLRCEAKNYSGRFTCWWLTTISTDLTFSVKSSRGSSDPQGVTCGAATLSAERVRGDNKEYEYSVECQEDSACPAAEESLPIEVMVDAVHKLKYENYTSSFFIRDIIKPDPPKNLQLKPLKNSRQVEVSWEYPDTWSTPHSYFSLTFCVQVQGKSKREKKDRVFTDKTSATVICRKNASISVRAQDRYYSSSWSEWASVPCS
Protocol: The dot blot binding assay previously described was used to characterize the relative potency of the majority of the aptamers synthesized. For KD determination, chemically synthesized aptamers were purified using denaturing polyacrylamide gel electrophoresis, 5′end labeled with γ-³²P ATP and were tested for direct binding to full human IL-23. An 8 point protein titration was used in the dot blot binding assay (either {100 nM, 30 nM, 10 nM, 3 nM, 1 nM, 300 pM, 100 pM, 0 pM} or {10 nM, 3 nM, 1 nM, 300 pM, 100 pM, 30 pM, 10 pM, 0 pM}) in Dulbecco's PBS (with Mg⁺⁺ and Ca⁺⁺) with 0.1 mg/mL BSA. KD values were calculated by fitting the equation y=(max/(1+K/protein))+yint using KaleidaGraph (KaleidaGraph v. 3.51, Synergy Software). Sequences of the ARC979 derivatives synthesized, purified and assayed for binding to IL-23 as well as the results of the protein binding characterization are tabulated below in Tables 29 and 30.

Binder	Kd [nM]
B1	0.1
B2	0.2
B3	0.4
B4	10
B5	10
B6	15.1
B7	0.4
B8	0.5
B9	0.9
B10	49.8

Same assay, conditions: tags: R&D Systems, carrier free; label: 5'-32P; G4 (predicted)

Binder	Kd [nM]
B11	1

Each binder was assayed against T1, IL-23 (human, p19/p40 heterodimer) (assay: filter; +tRNA). Conditions: tags: R&D Systems, carrier free.

Binder	Kd [nM]
B12	50
B13	93
B14	106

The binders below were run against IL-12 (human, p35/p40 heterodimer) (Homo sapiens, UniProt P29459;P29460 SEQ:57-253,SEQ:23-328) (assay: filter; tRNA). Conditions: not given.
IL-12 (human, p35/p40 heterodimer), sequence (P29459 23-219, chain 1 of 2): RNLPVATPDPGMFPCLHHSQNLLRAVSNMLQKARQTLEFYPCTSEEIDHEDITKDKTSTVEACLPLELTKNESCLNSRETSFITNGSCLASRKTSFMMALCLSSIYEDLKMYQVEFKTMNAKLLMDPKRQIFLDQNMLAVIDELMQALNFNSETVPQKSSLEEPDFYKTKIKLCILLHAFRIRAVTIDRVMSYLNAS
IL-12 (human, p35/p40 heterodimer), sequence (P29460 23-328, chain 2 of 2): as the sequence (P29460 23-328, chain 2 of 2) above
Protocol: Monitoring Progress of rRfY Selection. Dot blot binding assays were performed throughout the selections to monitor the protein binding affinity of the pools. Trace ³²P-labeled RNA was combined with a dilution series of h-IL-23 and incubated at room temperature for 30 minutes in 1×SHMCK (20 mM Hepes, 120 mM NaCl, 5 mM KCl, 1 mM MgCl₂, 1 mM CaCl₂, pH 7.4) plus 0.1 mg/mL tRNA for a final volume of 20 μL. The binding reactions were analyzed by nitrocellulose filtration using a Minifold I dot-blot, 96-well vacuum filtration manifold (Schleicher & Schuell, Keene, N.H.). A three-layer filtration medium was used, consisting (from top to bottom) of Protran nitrocellulose (Schleicher & Schuell), Hybond-P nylon (Amersham Biosciences) and GB002 gel blot paper (Schleicher & Schuell). RNA that is bound to protein is captured on the nitrocellulose filter, whereas the non-protein bound RNA is captured on the nylon filter. The gel blot paper was included simply as a supporting medium for the other filters. Following filtration, the filter layers were separated, dried and exposed on a phosphor screen (Amersham Biosciences, Piscataway, N.J.) and quantified using a Storm 860 Phosphorimager® blot imaging system (Amersham Biosciences).
When a significant positive ratio of binding of RNA in the presence of h-IL-23 versus in the absence of h-IL-23 was seen, the pools were cloned using a TOPO TA cloning kit (Invitrogen, Carlsbad, Calif.) according to the manufacturer's instructions. For the h-IL-23 and X-IL-23 selections, the Round 8 pool templates were cloned, and 32 individual clones from each selections were assayed in a 1-point dot blot screen (+/−75 nM h-IL-23, as well as a separate screen at +/−75 nM h-IL-12). For the PN-IL-23 selection, the Round 10 pool was cloned and sequenced, and 8 unique clones were assayed for protein binding in a 1-point dot blot screen (+/−200 nM h-IL-23 and a separate screen at +/−200 nM h-IL-12). Subsequently, the Round 10 PN-IL-23 pool was re-cloned for further sequences, as well as the R12 PN-IL-23 pool, and the clones were assayed for protein binding in a 1 point do blot screen (+/−100 nM h-IL-23 or +/−200 nM h-IL-12).

Binder	Kd [nM]
B15	400
B16	668
B17	934
B18	673
B19	332
B20	289
B21	1040
B22	905
B23	182
B24	5950
B25	541
B26	2910
B27	243

These binders were tested against T1, IL-23 (human, p19/p40 heterodimer) (assay: filter; SHMCK, tRNA). Conditions: tags: R&D Systems, carrier free.
Method in brief: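 Trace ³²P-labeled RNA incubated with a dilution series of h-IL-23 for 30 min at room temperature in 1×SHMCK (pH 7.4, 1 mM MgCl₂, 1 mM CaCl₂) plus 0.1 mg/mL tRNA. Bound RNA captured on nitrocellulose, free RNA on nylon; quantified by phosphorimaging. Clone screens used single points of 75, 100 or 200 nM IL-23 or IL-12.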

Binder	Kd [nM]
B15	80.3
B16	57.7
B17	111
B18	97.9
B19	105
B20	461
B21	77.8
B22	218
B23	157
B24	180
B25	256
B26	424
B27	16.6

These binders were tested against T1, IL-23 (human, p19/p40 heterodimer) (assay: cell_activity; TransAM STAT3). Conditions: tags: R&D Systems, carrier free.
Protocol: In summary, the cell-based assay was conducted by isolating the peripheral blood mononuclear cells (PBMCs) from whole blood using a Histopaque gradient (Sigma, St. Louis, Mo.). The PBMCs were cultured for 3 to 5 days at 37° C./5% CO₂ in Peripheral Blood Medium (Sigma) which contains PHA, supplemented with IL-2 (100 units/mL) (R&D Systems, Minneapolis, Minn.), to generate PHA Blasts. To test IL-23 aptamers, the PHA Blasts were washed twice with 1×PBS, then serum starved for four hours in RPMI, 0.20% FBS. After serum starvation, approximately 2 million cells were aliquotted into appropriately labeled eppendorf tubes. hIL-23 at a final constant concentration of 3 ng/mL (R&D Systems, Minneapolis, Minn.) was combined with a dilution series of various IL-23 aptamers as described in Example 1, and the cytokine/aptamer mixture was added to the aliquotted cells in a final volume of 100 μl and incubated at 37° C. for 10-12 minutes. The incubation reaction was stopped by adding 1 mL of ice-cold PBS with 1.5 mM Na₃VO₄. Cell lysates were made using the lysis buffer provided by the TransAM™ STAT 3 assay following the manufacturer's instructions. FIG. 20 depicts a flow summary of the protocol used for the cell based assay.
Full length clones from the rRfY selection described in Example 1A, and select minimized rRfY clones that were described in Example 2A. 1, were tested using the TransAM™ STAT3 activation assay. Table 34 summarizes the cell based assay data for IL-23 full length aptamers generated from the rRfY selections described in Example 1A. 1, each compared to the activity of their respective parent (full length) clone.

Binder	IC50 [nM]
B19	250
